To fix the notation:
B1: EIF5 (parent)
chain: KQTIGNSCKACGYRGMLDTHHKLC
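Also: lentivirally expressed fusions sorted by FACS into six bins by GFP to DsRed ratio, PSI derived from sequencing read proportions per bin multiplied by bin number.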

This data set covers variants of B1. Put plainly: protein stability index of a GFP-peptide fusion (GPS, HEK-293T) (PSI 1-6); higher = more stable. The note with it: c terminus: a fixed tail appended.
As for KQTIGNQCKACGYRGMLDTHHKLC [S7Q], the protein stability index stood at 4.08. For KQTIGNACKACGYRGMLDTHHKLC [S7A] the value was 3.96; for KQTIGNECKACGYRGMLDTHHKLC [S7E], 3.82. As to KQTIGNRCKACGYRGMLDTHHKLC [S7R], the protein stability index was found to be 3.11. In the case of KQTIGNCCKACGYRGMLDTHHKLC [S7C] it was 3.5; in that of KQTIGNFCKACGYRGMLDTHHKLC [S7F], 3.91; in that of KQTIGNDCKACGYRGMLDTHHKLC [S7D], 3.83. In the case of KQTIGNYCKACGYRGMLDTHHKLC [S7Y] it was 4.17; in that of KQTIGNSCKACGYRGMLDTHHKCC [L23C], 4.27.

As to KQTIGNSCKACGYRGMLDTHHKTC [L23T], the protein stability index stood at 4.03. As for KQTIGNSCKACGYRGMLDTHHKMC [L23M], the protein stability index amounted to 3.42.

Turning to KQTIGNSCKACGYRGMLDTHHKPC [L23P], the protein stability index was 3.28. In the case of KQTIGNSCKACGYRGMLDTHHKDC [L23D], the protein stability index was 4.67.

As for KQTIGNSCKACGYRGMLDTHHKWC [L23W], the protein stability index came out at 3.91.

As to KQTIGNSCKACGYRGMLDTHHKYC [L23Y], the protein stability index came to 3.89.

On to KQTIGNSCKACGYRGMLDTHHKKC [L23K], for which the protein stability index was found to be 3.36. With KQTIGNSCKACGYRGMLDTHHELC [K22E], the protein stability index came out at 2.96. In the case of KQTIGNSCKACGYRGMLDTHHNLC [K22N] it was 2.93; in that of KQTIGNSCKACGYRGMLDTHHDLC [K22D], 3.72; in that of KQTIGNSCKACGYRGMLDTHHLLC [K22L], 2.65. Take KQTIGNSCKACGYRCMLDTHHKLC [G15C]: the protein stability index amounted to 2.44.

KQTIGNSCKACGYRKMLDTHHKLC [G15K]: the protein stability index was 2.11.

KQTIGNSCKACGYRTMLDTHHKLC [G15T]: the protein stability index stood at 2.27. With KQTIGNSCKACGYRAMLDTHHKLC [G15A], the protein stability index came out at 1.78. Take KQTIGNSCKACGYRFMLDTHHKLC [G15F]: the protein stability index came to 2.24. With KQTIGNSCKACGYRMMLDTHHKLC [G15M], the protein stability index was 1.84. For KQTIGNSCKACGYRNMLDTHHKLC [G15N] the value was 2.45. For KQTIGNSCKACGYRQMLDTHHKLC [G15Q] the value was 2.12. For KQTIGNSCKACGYRPMLDTHHKLC [G15P], the protein stability index turned out to be 2.93. In the case of KQTIGNSIKACGYRGMLDTHHKLC [C8I], the protein stability index amounted to 1.74. As to KQTIGNSPKACGYRGMLDTHHKLC [C8P], the protein stability index stood at 1.88. Consider KQTIGNSGKACGYRGMLDTHHKLC [C8G], for which the protein stability index was 2.03.

As for KQTIGNSFKACGYRGMLDTHHKLC [C8F], the protein stability index amounted to 1.44. On to KQTIGNSQKACGYRGMLDTHHKLC [C8Q], for which the protein stability index was 1.91.

KQTIGNSVKACGYRGMLDTHHKLC [C8V]: the protein stability index was 1.78. Consider KQTIGNSLKACGYRGMLDTHHKLC [C8L], for which the protein stability index stood at 3.05. Turning to KQTIGNSYKACGYRGMLDTHHKLC [C8Y], the protein stability index came out at 1.44.

On to KQTIGNSWKACGYRGMLDTHHKLC [C8W], for which the protein stability index was 1.95. As to KQTIGNSCKACDYRGMLDTHHKLC [G12D], the protein stability index came out at 2.13. KQTIGNSCKACLYRGMLDTHHKLC [G12L]: the protein stability index came out at 1.92. On to KQTIGNSCKACVYRGMLDTHHKLC [G12V], for which the protein stability index is 1.62. In the case of KQTIGNSCKACHYRGMLDTHHKLC [G12H], the protein stability index is 2.36. In the case of KQTIGNSCKACSYRGMLDTHHKLC [G12S] it was 1.52; in that of KQTIGNSCKACYYRGMLDTHHKLC [G12Y], 2.14; in that of KQTIGNSCKACRYRGMLDTHHKLC [G12R], 2.66. Take KQTIGNSCKACWYRGMLDTHHKLC [G12W]: the protein stability index is 1.78. Regarding KQTIGNSCKACPYRGMLDTHHKLC [G12P], the protein stability index was determined as 1.84. For the variant KQTIGNSCKACGYRGMLDTHHKLT [C24T], the protein stability index worked out at 1.57.

Turning to KQTIGNSCKACGYRGMLDTHHKLP [C24P], the protein stability index is 1.81. For KQTIGNSCKACGYRGMLDTHHKLL [C24L] the value was 1.92. In the case of KQTIGNSCKACGYRGMLDTHHKLQ [C24Q] it was 2.22. In the case of KQTIGNSCKACGYRGMLDTHHKLH [C24H], the protein stability index is 1.9. For the variant KQTIGNSCKACGYRGMLDTHHKLE [C24E], the protein stability index stood at 2.11.

With KQTIGNSCKACGYRGMLDTHHKLF [C24F], the protein stability index amounted to 2.24.

As to KQTIGNSCKACGYRGMLDTHHKLK [C24K], the protein stability index amounted to 2.15.

For the variant KQTIGNSCKACGYRGMLDTHHKLW [C24W], the protein stability index amounted to 2.21. For the variant KQTIGNSCKACGYRGMLDTHHKLG [C24G], the protein stability index stood at 1.63.

Consider KQTIGNSCKACGCRGMLDTHHKLC [Y13C], for which the protein stability index came to 3.61. With KQTIGNSCKACGPRGMLDTHHKLC [Y13P], the protein stability index stood at 2. As to KQTIGNSCKACGQRGMLDTHHKLC [Y13Q], the protein stability index worked out at 3.29. For KQTIGNSCKACGHRGMLDTHHKLC [Y13H] the value was 2.77; for KQTIGNSCKACGTRGMLDTHHKLC [Y13T], 3.19; for KQTIGNSCKACGARGMLDTHHKLC [Y13A], 3.7. On to KQTIGNSCKACGMRGMLDTHHKLC [Y13M], for which the protein stability index was 3.32. As for KQTIGNSCKACGYKGMLDTHHKLC [R14K], the protein stability index was found to be 3.89. On to KQTIGNSCKACGYGGMLDTHHKLC [R14G], for which the protein stability index is 3.29. For KQTIGNSCKACGYEGMLDTHHKLC [R14E], the protein stability index amounted to 3.1.

On to KQTIGNSCKACGYPGMLDTHHKLC [R14P], for which the protein stability index amounted to 3.69. For KQTIGNSCKACGYCGMLDTHHKLC [R14C] the value was 4.75. On to KQTIGNSCKACGYSGMLDTHHKLC [R14S], for which the protein stability index was 3.51.

KQTIGNSCKACGYWGMLDTHHKLC [R14W]: the protein stability index was 2.12. With KQTIGQSCKACGYRGMLDTHHKLC [N6Q], the protein stability index is 3.95. As for KQTIGGSCKACGYRGMLDTHHKLC [N6G], the protein stability index was determined as 3.33. Regarding KQTIGVSCKACGYRGMLDTHHKLC [N6V], the protein stability index came to 3.52.

Consider KQTIGPSCKACGYRGMLDTHHKLC [N6P], for which the protein stability index stood at 3.12. Take KQTIGLSCKACGYRGMLDTHHKLC [N6L]: the protein stability index came to 2.96. For KQTIGFSCKACGYRGMLDTHHKLC [N6F] the value was 3.34; for KQTIGSSCKACGYRGMLDTHHKLC [N6S], 3.24; for KQTIGDSCKACGYRGMLDTHHKLC [N6D], 3.63. For the variant KQTIGNSCKACGYRGMKDTHHKLC [L17K], the protein stability index was 3.44. For the variant KQTIGNSCKACGYRGMTDTHHKLC [L17T], the protein stability index turned out to be 3.91. As for KQTIGNSCKACGYRGMNDTHHKLC [L17N], the protein stability index was found to be 3.65. For the variant KQTIGNSCKACGYRGMQDTHHKLC [L17Q], the protein stability index amounted to 3.85.

Regarding KQTIGNSCKACGYRGMCDTHHKLC [L17C], the protein stability index is 4.42. In the case of KVTIGNSCKACGYRGMLDTHHKLC [Q2V] it was 3. On to KTTIGNSCKACGYRGMLDTHHKLC [Q2T], for which the protein stability index was determined as 3.05. KGTIGNSCKACGYRGMLDTHHKLC [Q2G]: the protein stability index was found to be 3.22.

As for KCTIGNSCKACGYRGMLDTHHKLC [Q2C], the protein stability index stood at 3.09. With KWTIGNSCKACGYRGMLDTHHKLC [Q2W], the protein stability index came to 1.93. In the case of KITIGNSCKACGYRGMLDTHHKLC [Q2I] it was 2.51; in that of KMTIGNSCKACGYRGMLDTHHKLC [Q2M], 2.85. As for KLTIGNSCKACGYRGMLDTHHKLC [Q2L], the protein stability index is 2.61. For the variant KQWIGNSCKACGYRGMLDTHHKLC [T3W], the protein stability index worked out at 2.46.

Consider KQRIGNSCKACGYRGMLDTHHKLC [T3R], for which the protein stability index was determined as 3.18.

(Values after the supplement of paper PMC10567573.)
